For two substances, decrease in signal against unmodified H3 results are on record in paper PMC3518043.

The assay has as its target Histone H3 N-terminal peptide trimethylated at lysine-4 (celluspot peptide #1). In words: peptide or protein array.

Chain of GST-tagged CHD5 PHD2 finger (413-468) (Q8TDI0 413-468): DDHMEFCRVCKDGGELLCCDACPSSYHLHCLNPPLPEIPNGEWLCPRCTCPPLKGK
Chain of GST-tagged CHD5 PHD1 finger (338-393) (Q8TDI0 338-393): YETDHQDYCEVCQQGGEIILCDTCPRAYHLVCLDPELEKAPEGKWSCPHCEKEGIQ

As for “GST-tagged CHD5 PHD1 finger (338-393) (from UniProt Q8TDI0 338-393) (domain or fragment)”, the decrease in signal against unmodified H3 is more than 90%.

“GST-tagged CHD5 PHD2 finger (413-468) (from UniProt Q8TDI0 413-468) (domain or fragment)”: the decrease in signal against unmodified H3 was more than 90%.
